Article PMC11459929, “Novel humanized anti-PcrV monoclonal antibody COT-143 protects mice from lethal Pseudomonas aeruginosa infection via inhibition of toxin translocation by the type III secretion system” (Antimicrobial Agents and Chemotherapy, 2024)

Target: T1, PcrV (130–263) (Pseudomonas aeruginosa, UniProt G3XD49)
T1 construct: PcrV, type III secretion system needle-tip protein of Pseudomonas aeruginosa, residues 130Ala-263Asn; also called recombinant PcrV (130–263); partial PcrV (130–263); source: E. coli, purified (Profinity eXact Fusion-Tag system, Superdex75)
Test: crystal structure; h1F3 Fab and PcrV (130-263) mixed at a molar ratio of 1:2 in TBS with 0.5 mM TCEP at 4°C overnight, equimolar complex separated by Superdex200; crystals by sitting drop in 0.1 M acetate-Na pH 5.6, 24% PEG3350, 0.125 M CaCl2 at 20°C
Settings: both partners purified

B1: h1F3 Fab (Fab, V domains shown)
VH: QVQLVQSGAEVKKPGASVKVSCKASGYSFTSYWMHWVRQAPGQGLEWMGEINPSNGRTNYNEKFNTRVTMTRDTSTSTVYMELSSLRSEDTAVYYCVLYGNYVVYYTMDYWGQGTTVTVSS
VL: DIQLTQSPSFLSASVGDRVTITCSASTSVSYMEWYQQKPGKAPKLLIYTTSKLASGVPSRFSGSGSGTEFTLTISSLQPEDFATYYCHQWRNYPFTFGQGTKLEIK
notes: Fab part of the heavy chain of h1F3 (humanized from mouse m1F3 by CDR grafting with H93 and H94 back-mutation, human IgG4Pro format); light chain of h1F3 (has the mouse residue Ala at L128); also called Fab fragment of h1F3; pre-optimized COT-143 (Fab); source: papain digestion of h1F3, purified (HiTrap Protein A flow-through, Mono S, Superdex200)
binding result: binds
